Values belong to the binder of their own block, whether it stands above or below them.
Key:
120-G564S/320.1 [1] = experiment: biotin-ligand binding
[2] = target: HFD300.1 (HFD300-132K) Wild Type; experiment: Eu-ligand saturation binding
HFD300.1 = experiment: 125I-ligand binding
120-G564S/320.1 [3] = experiment: Eu-ligand binding

Kd (120-G564S/320.1 [1]): 0.211 nM
B1: HB-EGF-biotin (ligand)
chain: DLQEADLDLLRVTLSSKPQALATPNKEEHGKRKKKGKGLGKKRDPCLRKYKDFCIHGECKYVKELRAPSCICHPGYHGERCHGLSL

Kd (HFD300.1): 12.1 nM
B3: NRG1β (ligand)
chain: SHLVKCAEKEKTFCVNGGECFMVKDLSNPSRYLCKCPNEFTGDRCQNYVMASFYKHLGIEFMEAE

The remaining lines, values behind:

B2: Eu-NRG1β1 (ligand)
chain: SHLVKCAEKEKTFCVNGGECFMVKDLSNPSRYLCKCPNEFTGDRCQNYVMASFYKHLGIEFMEAE
Kd [2]: 3.11 nM

B4: EU-EGF (ligand)
chain: NSDSECPLSHDGYCLHDGVCMYIEALDKYACNCVVGYIGERCQYRDLKWWELR
Kd (120-G564S/320.1 [3]): 0.877 nM

— patent US20100278801A1 (published 2010)
